# Fewer inactive variants are shown than the library holds.
# B1: TPR 5TU (parent)
# chain: GGAUCUUCUCGAUCUAACAAAAAAGACAAAUCUGCCACAAAGCUUGAGAGCAUCUUCGGAUGCAGAGGCGGCAGCCUUCGGUGGCGCGAUAGCGCCAACGUUCUCAACUAUGACACGCAAAACGCGUGCUCCGUUGAAUGGAGUUUAUCAUG
# Variants of: B1
# Test: polymerase ribozyme fitness, log enrichment relative to wild type (log ratio); higher = more active; in vitro selection for triplet polymerase activity
# Outline: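 Fitness compares each genotype's enrichment to that of the wild type on a logarithmic scale, averaging replicates with inverse-variance weights. The logarithm is base 2. Enrichment came from Illumina sequencing of input and output libraries after one triplicate round of in vitro selection, which included frozen incubation at −7 °C, of PCR-built, transcribed mutant libraries of each subunit of a heterodimeric triplet polymerase ribozyme. Only genotypes with ≥10 input reads and ≥1 read per output were kept.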
row,Variant,polymerase ribozyme fitness (log ratio)
1,GGAUCUUCUCGAUCUAACAAAAAAGACUAAUCUGCCACAAAGCUUGAGAGCAACUUCGGAUGCAGAGGCGGCAGCCUUCGCUGGCGCGAUAGCGGCAACGUUCUCAUCUAUGACACGCAAAACGCGUGCUCCGUUGAAAGGAGUUUAUCAUG [A28U U53A G81C C95G A107U U139A],≤ -4.2
2,GGAUCUUCUCGAUCUAACAAAAAAGACACAUCUGCCACAACGCUUGAGAGCAUCUUCGGAUACAGAGGCGGCAGCCUUCGGUGACGCGAAAGCGCCAACGUUCUCAACUAUGACACGGAAAACGCGUGCUCCGUUGAAUGGAGUUUAUCAUG [A29C A41C G62A G84A U90A C118G],≤ -4.2
3,GGAUCUUCUCGAUCUAACAAAAAAGACUAAUCUGCCACAAAGCUUGAGAGCAUCUUCGGAUGCAGAGGCGGCAGCCUUCGGUGUCGCGAUAGCGCCAACGUUCUCAACUAUGACACGCAAAACGCGUGCUCCGUUGAAUGGAGUUUAUCAUG [A28U G84U],≤ -4.2
4,GGAUCUUCUCGAUCUAACAAAAAAGACACCUCUGCCACAAAGCUUGAGAGCAUCUUCGGAUGCAAAGGCGGCAGCCUUCGGUGGCGCGAUAGUGCCAACGUUCUCAACUAUGACACGCAAAACGCGUGCUCCGUUAAAUGGAGUUUAUCAUG [A29C A30C G65A C93U G136A],≤ -4.2
5,GGAUCUUCUCGAUCUAACAAAAAAGACUAAUCUGCCACAAAGCUUGAGAGCAUCAUCGGAUGCAGAGGCGGUAGCCUUCGGUGGCGCGACAGCGCCAACGUUCUCAACUAUGACGCGCAAAACGCGUGCUCCGUUGAAUGGAGUUUAUCAUG [A28U U55A C72U U90C A115G],≤ -4.2
6,GGAUCUUCUCGAUCUAACAAAAAAGACACUUCUGCCACAAAGCUUGAGAGCAUCUUCGGAUGCAGAGGCGGCAGCCUUCGGUGGCGCGAUAGCGCCUACGUUUUCAACUAUGACAGGCAAAACGCGUGCUCCAUUGAAUGGAGUUUAUCAUG [A29C A30U A97U C103U C116G G133A],≤ -4.2
7,GGAUCUUCUCGAUCUAACAAAAAAGACACAUCUGCCACAAAGCUUGAGUGCAUCUUCGGAUGCAGAGGCGGCAGCCUUCGGUGGCGCGAUUGCGCCAACGUUCUCAACUAUGACACGGAAAACGCGUGCUCCGUUGAAUGGAGUUUAUAAUG [A29C A49U A91U C118G C149A],≤ -4.2
8,GGAUCUUCUCGAUCUAACAAAAAAGACACAUCUGACACAAAGCUUGAGAGCAUCUUCGGAUGCAGAGGCGGCAGCCUUCGGUGGCGCGAUAGCGCCAACGUUCUCAACUAUGACACGCAAAACGCGUGCUCCGUUGAAUGGAGUUUAUCAUG [A29C C35A],-3.91
9,GGAUCUUCUCGAUCUAACAAAAAAGACACAUCUGCCAGAAAGCUUGAGAGCAUCUUCGGAUGCAUAGGCGGCAGCCAUCGCUGGCGCGAUAGCGCCAACGUUCUCAACUAUGACACGCAAAACGCGUGCUCCGUUGGAUGGAGUUUAUCAUG [A29C C38G G65U U77A G81C A137G],≤ -4.2
10,GGAUCUUCUCGAUCUAACAAAAAAGACACAUCUGCCACAGAGCUUGAGAGCAUCUUCGGAUGCAGAGGCGGCAGCCUUCGGUGGCGCGAUAGCGCCAACGUUCUCAACUAUGACACGCAAAAAGCGAGCUCCGUUGAAUGGAGUUUAUCAUG [A29C A40G C123A U127A],≤ -4.2
11,GGAUCUUCUCGAUCUAACAAAAAAGACACAUCUGCAACAAAGCUUGAGAGCAUCAUCGGAGGCAGAGGCGGCAGCCUUCGGUGGCGAGAUAGCGCCAACGUUCUCAACUAUGACACGCAAAACGCGUGCUCCGUUGAAUGGAGUUUAUCAUG [A29C C36A U55A U61G C87A],≤ -4.2
12,GGAUCUUCUCGAUCUAACAAAAAAGACACAUCUGCCACAAAGCUUGAGAGCCAUUUCGGAUGCAGAGGCGGCAGGCUUCGGUGGCGCGAUAGCGCCAACGUUCUCAACUAUGACACGCAAAACGCGUGAUCCGUUGAAUGGAGUUUAUCAUG [A29C A52C U53A C54U C75G C129A],≤ -4.2
13,GGAUCUUCUCGAUCUAACAAAAAAGACACAUCUGCCACUAAGCUUGAGAGCAUCUUCGGAUGCAGAGGCGGCAGCCUUCGGUGGCGCGAUAGCGCAAACGUUCUCAACUAUGACACGCAAAACGCGUGCUCCGUUGAAUGGAGUUUAUCAUG [A29C A39U C96A],≤ -4.2
14,GGAUCUUCUCGAUCUAACAAAAAAGACUAAUCUGCCACAAAGCUUGAGAGCAUCUUCGGACGCAGAGACGGCAGCCUUCGGUGGCACGUUAGCGCCAACGUUCUCAACUAUGACACCCAAAACGCGUGCUCCGUUGAAUGGAGUUUAUCAUG [A28U U61C G68A G86A A89U G117C],≤ -4.2
15,GGAUCUUCUCGAUCUAACAAAAAAGACUAAUCUGCCACAAAGCUUGAGAGCAUCAUCGGAUGCAGAGGCGGCAGCCUUCGGUGGCGCGAUAGCGCCAACGUUCUCAACUAUGACACGCAAAACGCGUGCUCCGUUGAAUGGAGUUUAUCAUG [A28U U55A],-4.13
16,GGAUCUUCUCGAUCUAACAAAAAAGACUAAUCUGCCACAAAGCUUGAGAGCAUCUUCGGAUGCAGAGGCGGCAGCCCUCGGUGGCGCGAUAGCGCCAACGUUCUCAACUAUGACACGCAAAACGCGUGCUCCGUUGAAUGGAGUUUAUCAUG [A28U U77C],≤ -4.2
17,GGAUCUUCUCGAUCUAACAAAAAAGACACAUCUGCCACAAAGCUUGAGAGCAUCUUCGGAUGCAGAGGCGGCAGCCUUCGGUGGCGCGAUAGCGCCAACGUUCUCAACUAUGACACGCAAAACGCGUGCUCCGUUGAAUGGAGUUUAUCAUG [A29C],-3.73
18,GGAUCUUCUCGAUCUAACAAAAAAGACACAUCUGCCACAAAGCUUGAGUGCCUAUUCGGAUGCAGAGGCGGCAGCCUUCGGUGGCGCGCUAGCGCCAACGUUCUCAACUAUGACACGCAAAAAGCGUGCUCCGUGGAAUCGAGUUUAUCAUG [A29C A49U A52C C54A A89C C123A U135G G140C],≤ -4.2
19,GGAUCUUCUCGAUCUAACAAAAAAGACACAUCUGCCACAAAGCUUGAGGGCAUCUUCGGAUGCAGAGGCGGCAGCCUUCGGUGGCGAGAUAGCGCCAACGUUCUCAACUAUGACACGCAAAACGCGUGCUCCGUUGAAUGGAGUUUAUCGUG [A29C A49G C87A A150G],≤ -4.2

# — the RNAGym collection of RNA variant scans (doi:10.1073/pnas.2313332121)
